Consider two substances from article PMC4416025, “Characterization of Hydrogen Metabolism in the Multicellular Green Alga Volvox carteri” (PLoS ONE, 2015).

Series [1] relates to T1, C[n+]1ccc(-c2cc[n+](C)cc2)cc1.
T1 construct: cDNA-derived, N-terminal 6xHis tag with GGG linker; sense cloning primer encodes tag then MDELDKP; tag removal not mentioned
The experiment in a line: H2 evolution assay, gas chromatography. It is filed as biochemical, Volvox carteri. The note with it: electron donor, methyl viologen reduced in situ by sodium dithionite; anaerobic.

Series [2] concerns T2, C[n+]1ccc(-c2cc[n+](C)cc2)cc1.
T2 construct: cDNA-derived, N-terminal 6xHis tag with GGG linker; sense cloning primer encodes tag then KCTSAV (no start Met, N-terminus probably truncated); maturation possibly incomplete
The series can be described thus: H2 evolution assay, gas chromatography. It is filed as biochemical, Volvox carteri. Particulars: electron donor, methyl viologen reduced in situ by sodium dithionite; anaerobic.

Broadly, the Km is the concentration of substrate that gives half-maximal velocity. Consider HYDA1 (Volvox carteri f. nagariensis), for which the Km in series [1] came to 2760 µM. As to HYDA2 (Volvox carteri f. nagariensis), the Michaelis constant (Km) in series [2] turned out to be 2820 µM.
